This series in a line: yeast display, Sf9 membrane polyspecificity reagent, FACS + sequencing; frameworks hold sequencing errors. In a few lines: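 A synthetic nanobody library was expressed on Saccharomyces cerevisiae BJ5465 by galactose induction for 36–48 hours. The library was stained for 1 hour at 4 °C with 10% biotinylated, detergent-solubilized Sf9 membrane reagent and enriched with streptavidin microbeads before FACS. Low and high (top ~1%) gates were set on anti-HA fluorescence for expression and streptavidin fluorescence for reagent binding, and each polyreactivity label reflects the gate of origin.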
Turning to “QVQLVESGVGLVQAGGSLRLSCAASGNIFTTYAMGWYRQAPGKERELVAAISRTGGRTSYADSVKGRFTISRDNAKNTVYLQMNSLKPEDTAVYYCAAVPTVRPSAPRARILSDYWGQGTQVTVSS”, the “polyreactivity (PSR sort gate)” value is “high polyreactivity”.
On to “QVQLVESGVGLVQAGGSLRLSCAASGNTFLPYAMGWYRQAPGKERELVAANSWSGGSTYYADSVKGRFTISRDNAKNTVYLQMNSLKPEETAVYYSARRRIGTPAYYYWGHGTQVTVSS”, for which the “polyreactivity (PSR sort gate)” value is reported as “high polyreactivity”.
As to “QVQLVESGVGLVQAGGSLRLSCAASGRIFCYYAMGWYRQAPGKERELVATINGGGSTNYADSVKGRFTISRDNAKNTVYLQMNSLKPEDTAVYYCAAAQWAYWLLYKYWGQVTQVTVSS”, the “polyreactivity (PSR sort gate)” value is reported as “low polyreactivity”.
As for “QVQLVESGVGLVQAGGSLRLSCAASGRTFAQYAMGCYRQAPGKERELVAVISRCTGRTYYADSVKGRFTISRDNAKNTVYLQMNSLKPEDTALYYCNTSPKLTYALLYVYWGQGTQVNVSS”, the “polyreactivity (PSR sort gate)” value is “high polyreactivity”.
Regarding “QVQLVESGVGLVQAGGSLRLSCAASGSIFEDYVMGWYRQAPGKERELVADITSGGTTYYADSVKGRFTISRDNAKNTVYLQMNSLKPEDTAVYYCAAEVDWVPFLLDYWGQGTQVTVSS”, the “polyreactivity (PSR sort gate)” value is reported as “low polyreactivity”.
Regarding “QVQLVESGVGLVQAGGSLRLSCAASGSIFEVYAMGWYRQAPGKEREFVATLSGSGGSTYYADSVKGRFTISRDNAKNTVYLQMNSLKPEDTAVYYCAASIAWYSSFVITCYYWGQGTQVTVSS”, the “polyreactivity (PSR sort gate)” value is given as “low polyreactivity”.
“QVQLVESGVGLVQAGGSLRLSCAASGSIFVYYAMGWYRPAPGKERELVAAINFRGGNTYYADSVKGRFTISRDNAKNTVYLQMNRLKPEDTAVYYCAADYRWKWIGGARYDYWGQGTQVTVSS”: the “polyreactivity (PSR sort gate)” value is “low polyreactivity”.
The result for “QVQLVESGVGLVQAGGSLRLSCAASGSIITPYAMGWYRQAPGKERELVAAITSGGSTYADSVKGRFTISRDNAKNTVYLQMNSLKPEDTAVYYCAADRSYVYAGADMYYWGQGTQVTVSS” reads “low polyreactivity”; that for “QVQLVESGVGLVQAGGSLRLSCAASGSNFNTYTMGRYRQAPGKERELVAAITWSGGRTYYADSVKGRFTISRDNAKNTVYLQMNSLKPEDTAGYYCAADWGEDYTRDDYWGQGTQVTVSS”, “low polyreactivity”; that for “QVQLVESGVGLVQAGGSLRLSCAASGSTFGGYAMGWYRQAPGKERELVAAITSRSGRTYYADSVKGRFTISRDIAKNTVYLQMNSLKPEDTAVYYCATPQYPGRDYWGQGTQVTVSS”, “high polyreactivity”.
Take “QVQLVESGVGLVQAGGSLRLSCAASGSTFSIYALGWYRQAPGKERELVAAISWDSDDTYYADSVNGRFTISRDNAKNTVYLQMNSLKPEDTAVYYCAADRLDRYYYWGQGTQVTVSS”: the “polyreactivity (PSR sort gate)” value is “low polyreactivity”.
The result for “QVQLVESGVGLVQAGGSLRLSCAASGSTFSYYAMGWYRQAPGKERELVAAITRSGGRTYYADSVKGRFTISRDNAKNTVYLQMNSLKPEDTAVYYCAALSVGTRRDYWGQGTQVTVSS” reads “low polyreactivity”; that for “QVQLVESGVGLVQAGGSLRLSCAASGSTFYAYAMGWNRQAPGKERELVAAISSDGTNYADSVKGRFTISRDNAKNTVYLQMNSLKPDDTAVYYCAADLLLYSSQDNDYWGQGTQVTVSS”, “low polyreactivity”.
“QVQLVESGVGLVQAGGSLRLSCAASGSTFYRNTMGWYRQAPGKERELVAAINTSGASTYYADSVKGRFTISRDNAKNTVYLQMNSLKPEDTAVYYCAALYRGYTGGYKFYYWGQGTQVTVSS”: the “polyreactivity (PSR sort gate)” value is “high polyreactivity”.
On to “QVQLVESGVGLVQAGGSLRLSCAASGSTLVSYAKGWYIQAPGKERELVASISSGDSTYADSVKGRFTISRDNAKNTVYLQMNSLKPEDTAVYYCNVGNEGSYGFPVTYEYWGQGTQVTVSS”, for which the “polyreactivity (PSR sort gate)” value is listed as “low polyreactivity”.
On to “QVQLVESGVGLVQAGGSLRLSCAASGYIFYYYAMGWYRQAPGKESELVAAISSTVSTNYADSVKGRFTISRDNAKNTVYLQMNSLKPEDTAVYYCAAAQRVNHVWYDYWGQGTQVTVSS”, for which the “polyreactivity (PSR sort gate)” value is on record as “low polyreactivity”.
